The source of these data is PMC8307404, “Crystal Structure-Guided Design of Bisubstrate Inhibitors and Photoluminescent Probes for Protein Kinases of the PIM Family” (Molecules, 2021).

Molecules are shown by their SMILES. Square brackets hold non-standard residues; d marks the D form. Peptide text beside a SMILES is read from it. * marks the point of attachment. X3 = O=C(CCCCCNCc1nc2c(sc3cc(Br)cnc32)c(=O)[nH]1)*

What all share (assay): Kinase profiling (radiometric filter-binding)
What all share (type): biochemical

Series [1] has as its target FGF-R1 (Homo sapiens, UniProt P11362). To be noted: FGF-R1, 1 µM inhibitor; read-out: Residual activity, %. A digest of the protocol: (§1)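 Radiometric filter-binding; human PKs; ATP ≤ KM per kinase; compound 1 µM final; readout = % residual activity vs no-inhibitor control.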
Series [2] concerns the target T1, PDK1 (Homo sapiens, UniProt O15530).
T1 sequence (O15530 1-556): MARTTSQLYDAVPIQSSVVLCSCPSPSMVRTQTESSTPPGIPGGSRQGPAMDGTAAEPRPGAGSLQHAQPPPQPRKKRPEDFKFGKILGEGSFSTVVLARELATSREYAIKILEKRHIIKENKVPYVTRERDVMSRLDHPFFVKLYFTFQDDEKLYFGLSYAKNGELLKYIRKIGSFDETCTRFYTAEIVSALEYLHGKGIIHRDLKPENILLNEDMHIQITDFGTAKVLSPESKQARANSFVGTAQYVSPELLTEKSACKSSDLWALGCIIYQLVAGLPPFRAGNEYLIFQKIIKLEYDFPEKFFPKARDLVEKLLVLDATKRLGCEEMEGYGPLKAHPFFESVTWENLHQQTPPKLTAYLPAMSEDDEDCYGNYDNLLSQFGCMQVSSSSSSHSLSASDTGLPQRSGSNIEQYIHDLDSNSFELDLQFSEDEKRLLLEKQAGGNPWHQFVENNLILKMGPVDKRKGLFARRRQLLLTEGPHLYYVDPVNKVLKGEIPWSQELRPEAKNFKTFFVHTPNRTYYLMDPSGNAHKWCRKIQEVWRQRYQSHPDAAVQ
The following applies: PDK1, 1 µM inhibitor; read-out: Residual activity, %. A digest of the protocol: as §1

In series [3] the target is T2, TTK (Homo sapiens, UniProt P33981).
T2 sequence (P33981 1-857): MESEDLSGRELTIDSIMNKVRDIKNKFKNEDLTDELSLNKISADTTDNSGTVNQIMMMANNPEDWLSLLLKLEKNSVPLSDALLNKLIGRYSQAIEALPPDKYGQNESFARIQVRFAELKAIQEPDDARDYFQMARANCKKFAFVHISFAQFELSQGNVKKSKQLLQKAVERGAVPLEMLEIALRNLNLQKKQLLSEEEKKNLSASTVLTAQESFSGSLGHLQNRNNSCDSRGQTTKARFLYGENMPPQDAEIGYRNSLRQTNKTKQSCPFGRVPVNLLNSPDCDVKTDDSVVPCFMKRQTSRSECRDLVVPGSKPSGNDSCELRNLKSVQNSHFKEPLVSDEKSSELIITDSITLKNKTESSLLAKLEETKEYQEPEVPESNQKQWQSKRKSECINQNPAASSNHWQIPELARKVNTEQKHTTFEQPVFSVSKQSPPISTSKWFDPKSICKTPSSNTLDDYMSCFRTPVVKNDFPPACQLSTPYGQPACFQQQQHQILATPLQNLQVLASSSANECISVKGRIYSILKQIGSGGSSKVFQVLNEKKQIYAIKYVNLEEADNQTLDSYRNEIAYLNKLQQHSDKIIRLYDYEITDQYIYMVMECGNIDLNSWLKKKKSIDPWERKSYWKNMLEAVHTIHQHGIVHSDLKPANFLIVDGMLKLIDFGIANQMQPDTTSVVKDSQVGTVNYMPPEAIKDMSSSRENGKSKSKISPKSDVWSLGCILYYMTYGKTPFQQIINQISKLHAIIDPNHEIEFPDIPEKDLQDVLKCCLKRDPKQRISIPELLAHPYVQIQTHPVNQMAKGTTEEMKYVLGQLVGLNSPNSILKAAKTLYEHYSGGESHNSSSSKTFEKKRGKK
The following applies: 1 µM inhibitor, read-out: Residual activity, %. An outline of the steps:
as §1

Series [4] addresses HER4 (Homo sapiens, UniProt Q15303). The following applies: HER4, 1 µM inhibitor; read-out: Residual activity, %. An outline of the steps:
as §1

Series [5] has as its target PAK5 (Homo sapiens, UniProt Q9P286). The following applies: PAK5, 1 µM inhibitor; read-out: Residual activity, %. An outline of the steps:
as §1

The target of series [6] is PKCγ (Homo sapiens, UniProt P05129). The following applies: 1 µM inhibitor, read-out: Residual activity, %. A digest of the protocol: as §1
In series [7] the target is T3, ZAP70 (Homo sapiens, UniProt P43403).
T3 sequence (P43403 1-619): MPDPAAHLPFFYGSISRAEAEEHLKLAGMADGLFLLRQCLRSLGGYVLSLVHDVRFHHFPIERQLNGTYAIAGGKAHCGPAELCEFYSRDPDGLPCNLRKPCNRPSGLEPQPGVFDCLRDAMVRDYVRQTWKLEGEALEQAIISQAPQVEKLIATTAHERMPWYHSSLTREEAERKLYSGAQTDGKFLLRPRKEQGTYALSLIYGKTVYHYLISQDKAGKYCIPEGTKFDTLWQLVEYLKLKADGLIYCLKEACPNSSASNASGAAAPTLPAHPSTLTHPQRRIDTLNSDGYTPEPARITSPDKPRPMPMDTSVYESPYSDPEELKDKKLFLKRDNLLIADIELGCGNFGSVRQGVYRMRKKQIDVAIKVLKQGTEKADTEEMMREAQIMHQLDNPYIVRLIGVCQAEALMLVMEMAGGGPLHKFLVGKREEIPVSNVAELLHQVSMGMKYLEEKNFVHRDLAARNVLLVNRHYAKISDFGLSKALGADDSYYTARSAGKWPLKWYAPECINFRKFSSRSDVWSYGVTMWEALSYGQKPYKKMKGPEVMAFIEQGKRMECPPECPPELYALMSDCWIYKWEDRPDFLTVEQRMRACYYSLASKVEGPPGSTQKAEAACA
To be noted: ZAP70, 1 µM inhibitor; read-out: Residual activity, %. An outline of the steps:
as §1

Series [8] has as its target MNK1 (Homo sapiens, UniProt Q9BUB5). To be noted: MNK1, 1 µM inhibitor; read-out: Residual activity, %. A digest of the protocol: as §1

Chain of HER4 (Q15303 26-1308): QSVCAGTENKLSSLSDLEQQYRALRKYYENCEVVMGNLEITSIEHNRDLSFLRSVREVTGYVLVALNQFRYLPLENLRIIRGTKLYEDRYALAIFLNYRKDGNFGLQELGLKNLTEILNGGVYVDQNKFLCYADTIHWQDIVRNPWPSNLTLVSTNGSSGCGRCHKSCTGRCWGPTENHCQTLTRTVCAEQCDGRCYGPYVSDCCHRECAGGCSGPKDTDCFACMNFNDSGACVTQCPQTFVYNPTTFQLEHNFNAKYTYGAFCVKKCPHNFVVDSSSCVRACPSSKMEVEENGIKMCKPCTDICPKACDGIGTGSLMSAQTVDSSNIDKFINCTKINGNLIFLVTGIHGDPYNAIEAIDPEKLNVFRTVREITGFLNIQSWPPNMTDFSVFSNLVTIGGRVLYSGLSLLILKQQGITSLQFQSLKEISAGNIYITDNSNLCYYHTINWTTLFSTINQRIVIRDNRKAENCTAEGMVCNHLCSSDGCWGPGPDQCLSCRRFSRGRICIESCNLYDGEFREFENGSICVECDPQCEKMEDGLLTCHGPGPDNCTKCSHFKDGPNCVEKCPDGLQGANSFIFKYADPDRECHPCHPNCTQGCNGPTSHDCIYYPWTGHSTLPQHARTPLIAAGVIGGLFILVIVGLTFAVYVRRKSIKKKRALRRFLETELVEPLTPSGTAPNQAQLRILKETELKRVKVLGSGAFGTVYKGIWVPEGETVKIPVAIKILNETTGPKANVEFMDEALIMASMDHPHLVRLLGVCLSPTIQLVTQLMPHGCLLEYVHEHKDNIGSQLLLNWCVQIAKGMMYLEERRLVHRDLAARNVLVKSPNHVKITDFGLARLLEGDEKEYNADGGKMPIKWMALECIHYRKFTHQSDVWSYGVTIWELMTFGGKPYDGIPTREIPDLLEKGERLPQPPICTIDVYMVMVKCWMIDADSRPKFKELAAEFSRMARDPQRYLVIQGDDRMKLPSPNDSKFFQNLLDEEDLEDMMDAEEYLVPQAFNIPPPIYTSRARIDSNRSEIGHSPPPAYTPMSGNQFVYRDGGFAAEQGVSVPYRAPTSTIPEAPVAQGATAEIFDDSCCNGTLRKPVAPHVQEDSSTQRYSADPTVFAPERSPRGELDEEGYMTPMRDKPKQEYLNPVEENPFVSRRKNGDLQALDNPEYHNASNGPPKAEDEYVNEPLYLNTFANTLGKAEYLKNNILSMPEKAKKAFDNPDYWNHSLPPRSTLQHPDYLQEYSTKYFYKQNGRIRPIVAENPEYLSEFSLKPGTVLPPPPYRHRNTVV
Chain of MNK1 (Q9BUB5 whole entry): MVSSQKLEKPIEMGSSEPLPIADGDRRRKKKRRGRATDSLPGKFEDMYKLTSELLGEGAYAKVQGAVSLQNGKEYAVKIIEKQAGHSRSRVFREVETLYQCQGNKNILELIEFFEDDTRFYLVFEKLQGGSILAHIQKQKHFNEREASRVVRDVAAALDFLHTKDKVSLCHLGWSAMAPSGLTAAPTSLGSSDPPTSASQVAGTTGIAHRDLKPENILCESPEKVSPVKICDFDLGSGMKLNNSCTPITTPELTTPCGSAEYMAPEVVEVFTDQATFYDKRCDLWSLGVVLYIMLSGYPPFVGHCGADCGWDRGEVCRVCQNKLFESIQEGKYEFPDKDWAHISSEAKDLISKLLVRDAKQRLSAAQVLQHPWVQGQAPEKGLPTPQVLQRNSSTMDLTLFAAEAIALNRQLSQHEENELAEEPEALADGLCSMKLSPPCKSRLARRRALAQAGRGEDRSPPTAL
Chain of FGF-R1 (P11362 22-822): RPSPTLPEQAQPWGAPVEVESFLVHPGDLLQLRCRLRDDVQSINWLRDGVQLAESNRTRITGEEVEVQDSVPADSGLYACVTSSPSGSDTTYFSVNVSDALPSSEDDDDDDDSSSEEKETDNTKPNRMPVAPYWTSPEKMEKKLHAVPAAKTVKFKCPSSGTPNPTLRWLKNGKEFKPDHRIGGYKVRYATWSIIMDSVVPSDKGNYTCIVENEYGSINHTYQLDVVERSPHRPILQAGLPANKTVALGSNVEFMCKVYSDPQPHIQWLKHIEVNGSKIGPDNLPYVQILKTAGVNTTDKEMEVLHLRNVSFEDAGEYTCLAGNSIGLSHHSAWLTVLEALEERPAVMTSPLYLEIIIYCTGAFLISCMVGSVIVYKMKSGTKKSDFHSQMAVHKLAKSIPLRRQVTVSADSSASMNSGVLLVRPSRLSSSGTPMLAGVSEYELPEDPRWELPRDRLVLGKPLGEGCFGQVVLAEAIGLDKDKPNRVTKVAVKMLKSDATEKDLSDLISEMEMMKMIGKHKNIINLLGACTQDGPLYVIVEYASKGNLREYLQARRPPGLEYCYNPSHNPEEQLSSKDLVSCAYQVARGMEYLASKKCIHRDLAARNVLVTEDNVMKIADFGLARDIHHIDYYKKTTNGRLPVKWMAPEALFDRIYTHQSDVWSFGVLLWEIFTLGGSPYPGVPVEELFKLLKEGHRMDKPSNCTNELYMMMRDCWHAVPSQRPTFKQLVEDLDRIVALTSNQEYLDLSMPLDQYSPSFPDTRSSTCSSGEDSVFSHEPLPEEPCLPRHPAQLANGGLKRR
Chain of PAK5 (Q9P286 whole entry): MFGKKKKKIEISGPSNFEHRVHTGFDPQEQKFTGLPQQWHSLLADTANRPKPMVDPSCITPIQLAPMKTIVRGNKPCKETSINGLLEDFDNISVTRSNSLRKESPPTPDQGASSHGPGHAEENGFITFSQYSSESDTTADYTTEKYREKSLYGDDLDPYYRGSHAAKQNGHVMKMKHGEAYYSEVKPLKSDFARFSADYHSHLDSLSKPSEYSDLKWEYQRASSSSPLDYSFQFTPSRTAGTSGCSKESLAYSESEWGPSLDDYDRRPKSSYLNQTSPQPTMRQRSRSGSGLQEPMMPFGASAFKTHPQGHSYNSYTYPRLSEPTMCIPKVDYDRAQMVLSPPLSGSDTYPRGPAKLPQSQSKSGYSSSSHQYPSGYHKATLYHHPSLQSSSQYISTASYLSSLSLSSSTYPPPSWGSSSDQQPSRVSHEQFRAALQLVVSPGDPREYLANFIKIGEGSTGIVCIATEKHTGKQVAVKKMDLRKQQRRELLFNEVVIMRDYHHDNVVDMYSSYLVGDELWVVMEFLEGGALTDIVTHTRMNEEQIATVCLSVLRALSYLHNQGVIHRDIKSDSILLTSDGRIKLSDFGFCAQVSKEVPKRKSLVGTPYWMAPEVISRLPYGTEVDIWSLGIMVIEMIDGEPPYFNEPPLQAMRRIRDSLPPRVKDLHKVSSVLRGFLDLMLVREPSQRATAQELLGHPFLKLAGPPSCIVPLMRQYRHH

In the case of `N=C(N)NCCC[C@@H](NC(=O)CCCCCNCc1nc2c(sc3cc(Br)cnc32)c(=O)[nH]1)C(=O)N[C@H](CCCNC(=N)N)C(=O)N[C@H](CCCNC(=N)N)C(=O)N[C@H](CCCNC(=N)N)C(=O)N[C@H](CCCNC(=N)N)C(=O)N[C@H](CCCNC(=N)N)C(=O)N[C@H](CCCCN)C(N)=O` [ARC-3126, BPTP-Ahx-(D-Arg)6-D-Lys-NH2] (X3-[dR][dR][dR][dR][dR][dR][dK]-NH2), the remaining activity at 1 µM in series [1] was 102 ± 3%; in series [2], 111 ± 13%; in series [3], 110 ± 4%; in series [4] it was 110 ± 5%; in series [5], 89 ± 2%; in series [6] it was 98 ± 8%. The remaining activity at 1 µM in series [7] was 83 ± 30%; in series [8], 89 ± 5%.
Turning to `N=C(N)NCCC[C@@H](NC(=O)CNC(=O)[C@@H](CCCNC(=N)N)NC(=O)[C@@H](CCCNC(=N)N)NC(=O)CCCCCCCNCc1nc2c(sc3ccc(Br)cc32)c(=O)[nH]1)C(=O)N[C@H](CCCCN)C(N)=O` [Compound 2, BBTP-Aoc-(D-Arg)2-Gly-D-Arg-D-Lys-NH2], the remaining activity at 1 µM in series [1] was determined as 126 ± 10%; in series [2], 121 ± 7%; in series [3], 94 ± 15%; in series [4], 114 ± 15%; in series [5], 100 ± 2%; in series [6], 97 ± 3%. In addition, the results for the remaining activity at 1 µM in series [7] and in series [8] were 87 ± 7% and 66 ± 7%, respectively.
Regarding `N=C(N)NCCC[C@@H](NC(=O)CNC(=O)[C@@H](CCCNC(=N)N)NC(=O)[C@@H](CCCNC(=N)N)NC(=O)Cn1cc(CNCc2nc3c(sc4ccc(Br)cc43)c(=O)[nH]2)nn1)C(=O)N[C@H](CCCCN)C(N)=O` [Compound 3, BBTP-Amt-(D-Arg)2-Gly-D-Arg-D-Lys-NH2], the remaining activity at 1 µM in series [1] came out at 110 ± 2%; in series [2], 118 ± 16%; in series [3] it was 86 ± 9%; in series [4], 105 ± 8%; in series [5], 92 ± 5%; in series [6], 105 ± 9%. Further, the remaining activity at 1 µM in series [7] amounted to 53 ± 14%; in series [8] it was 89 ± 8%.
As to `N=C(N)NCCC[C@@H](NC(=O)CCCCCNC(=O)Cn1cnc2c(I)c(I)c(I)c(I)c21)C(=O)N[C@H](CCCNC(=N)N)C(=O)N[C@H](CCCNC(=N)N)C(=O)N[C@H](CCCNC(=N)N)C(=O)N[C@H](CCCNC(=N)N)C(=O)N[C@H](CCCNC(=N)N)C(=O)N[C@H](CCCCN)C(N)=O` [ARC-3125, TIBI-CH2-C(=O)-Ahx-(D-Arg)6-D-Lys-NH2], the remaining activity at 1 µM in series [1] was found to be 100 ± 19%; in series [2], 123 ± 7%; in series [3] it was 45 ± 1%; in series [4], 120 ± 9%; in series [5] it was 25 ± 6%; in series [6], 86 ± 9%. Moreover, the figures for the remaining activity at 1 µM in series [7] and in series [8] were 105 ± 8% and 67 ± 4%, respectively.
For the compound `N=C(N)NCCC[C@@H](NC(=O)CNC(=O)[C@@H](CCCNC(=N)N)NC(=O)[C@@H](CCCNC(=N)N)NC(=O)CCCCCCCNCc1nc2c(sc3cc(Br)cnc32)c(=O)[nH]1)C(=O)N[C@H](CCCCN)C(N)=O` [Compound 1, BPTP-Aoc-(D-Arg)2-Gly-D-Arg-D-Lys-NH2], the remaining activity at 1 µM was 142 ± 8% in series [1]; 116 ± 3% in series [2]; 113% in series [3]; 111 ± 13% in series [4]; 112 ± 3% in series [5]; 99 ± 11% in series [6]. Also, the remaining activity at 1 µM in series [7] was found to be 95 ± 21%; in series [8] it was 102 ± 3%.
